Details of series [1]: method as in manufacturer's package insert. Particulars: humans; ref manufacturer's package insert; cited from earlier work.
Another series relates to HT-29 cells. Put plainly: Non-specific binding (NSB) to HT-29 cells by FACS. The series is classed as cell-based, human. The following applies: 100 μL of nanoprobes (2 μM) added to 100 μl 2% FBS/DPBS, 30 min at 37 °C, means±1 S.D. An excerpt: We next examined the non-specific binding (NSB) of PN’s to HT-29 cells based on the assumption that NSB minimization will correlate with a desirable minimization of post-IV injection retention. As noted above, after diagnostic drugs generate their added information, retention can only increase the risks of delayed toxicity. The attachment of PEG decreased the non-specific binding (NSB) to HT-29 cells, scored as the percent of cells above the cutoff for unstained cells seen with FACS ( Table 1 , column 7).
PN and peptide binding to cells (effect of PEGylation on NSB): HT-29, a human colon carcinoma cell line, was from the American Tissue Culture Collection and maintained according to their instructions. Cells were seeded on 24-well plates at 5X10^5 cells/well in culture medium (RPMI 1640 with 10% FBS) the day before the assay. The day of assay, medium was removed, wells rinsed twice with DPBS (+Ca, +Mg), and 100 μl of 2% FBS / DPBS (+Ca, +Mg) added. 100 μL of Nanoprobes (2 μM) in DPBS (+Ca, +Mg) was added to cells and incubated for 30min at 37 °C. (Probe concentrations were determined spectrophotometrically (783 nm, extinction coefficient of 314 471 cm^-1 M^-1 for IR-783; 497 nm, extinction coefficient of 68 000 cm^-1 M^-1 for Fluorescein; 545 nm, extinction coefficient of 150 000 cm^-1 M^-1 for Cy3). Cells were detached by Trypsin/EDTA and assayed for fluorescence by FACS (BD 7 laser LSR2 for nanoprobes with IR-783; BD 3 laser LSR2 for nanoprobes with Fluorescein or Cy3).
Figure S4: Effect of PEGylation on non-specific binding to cells by single channel FACS. […] Arrows indicates the cutoff for unstained cells.

Series [2] is described as follows: Probe size (volume) by FPLC calibrated with globular protein standards. It is filed as physicochemical. An excerpt:
(§1) FPLC chromatograms are shown for PN’s bearing the IR-783 fluorochrome with PEG’s ranging from 2 to 40 kDa ( Figure 2A ). FPLC was calibrated with globular protein standards, and globular protein equivalent molecular volumes (in kDa) were obtained ( Table 1 , column 5). Next, these globular protein equivalent molecular volumes were converted to PN diameters in nm using the relationship: [drawing 1] where M is the molecular weight of a globular protein expressed in daltons. PN diameters ranged from 3.0 to 11.7 nm, which means PN’s can be smaller or larger than albumin (MW = 67 kDa; diameter = 5.4 nm, by the formula above). Thus Table 1 column 5 gives the PN volumes obtained from FPLC expressed in two ways: (i) as the molecular weight in kDa of globular proteins with equivalent volumes, permitting size comparison of PN’s to proteins, and, (ii) as spherical diameters (“Dia.”) in nm, permitting size comparisons of a PN to relative to other nanomaterials. We confirmed the sizes obtained with FPLC by measuring the size of PN(783)11.7 by dynamic light scattering (11.7 nm).
The mass spec of low molecular weight (MW) materials were obtained by MS-ESI Micromass (Waters) and high MW molecules were determined through MALDI-TOF analyses at the Tufts University Core Facility. RP-HPLC (Varian ProStar detector and delivery modules) employed an eluant A (0.1% TFA/water) and eluant B (0.1% TFA and 9.9% water in acetonitrile). Probe size (volume) was determined by FPLC using an ÄKTA Purifier 10 and SuperdexTM 200 10/300GL column (GE Healthcare) with a running buffer of 0.05 M sodium phosphate, 0.1 M NaCl (0.1% Tween, pH 7.2) and flow rate of 0.8 ml/min. Standards (GE Healthcare) were Ferritin, Ribonuclease A, Carbonic Anhydrase, and Conalbumin and Blue Dextran 2000. To obtain probe volumes, Mr (apparent molecular weight based on size exclusion retention) was plotted versus Kav. [drawing 7] , Vt = total volume, Ve = elution volume, Vo = void volume.
PN and peptide characterization: The mass spec of low molecular weights (MW) were obtained by MS-ESI Micromass (Waters) and high MW molecules were determined through MALDI-TOF analyses at the Tufts University Core Facility. RP-HPLC (Varian ProStar detector and delivery modules) employed an eluant A (0.1% TFA /water) and eluant B (0.1% TFA and 9.9% water in acetonitrile). […] Standards (GE Healthcare) were Ferritin, Ribonuclease A, Carbonic Anhydrase, and Conalbumin and Blue Dextran 2000. To obtain probe volumes, Mr (apparent molecular weight based on size exclusion retention) was plotted versus Kav. [picture] , Vt = total volume, Ve = elution volume, Vo = void volume.

Series [3] can be described thus: Size by dynamic light scattering. It is filed as physicochemical. Particulars: Nano-ZS Zetasizer, z-average.
Source text: as §1
Size by dynamic light scattering: Size was obtained on a Nano-ZS Zetasizer (Malvern, Medford, MA) and is expressed as the z-average.

A short description of series [4]: Quantum yield of fluorochrome-bearing peptides and PN's. The series is classed as physicochemical. The following applies: means±1 S.D. An excerpt:
(The p values showing significances are in Figure S2 in File S1). […] PEG attachment increased quantum yields in all cases, but as discussed below the magnitude of PEG generated improvement varied with the fluorochrome chosen. A mechanism for the PEG improvement of quantum yield is fluorochrome shielding, or the blocking of fluorochrome-fluorochrome interactions that result in quenching.
However, the magnitude of these benefits varied with the fluorochrome selected. […] Previous studies indicated PEGylated, fluorochrome-bearing peptides have absorption spectra in PBS similar to their unstacked absorption spectra in methanol. […] It appears that longer wavelength fluorochromes have stronger fluorochrome/fluorochrome stacking interactions, which result in more quenching, which is blocked by PEG and which gives rise to larger increases in quantum yield.

The values that follow come from paper PMC4004541, “PEG-Like Nanoprobes: Multimodal, Pharmacokinetically and Optically Tunable Nanomaterials” (PLoS ONE, 2014).

As to `CC1(C)C(/C=C/C=C/C=C/C=C2\N(CCCCS(=O)(=O)O)c3ccc4ccccc4c3C2(C)C)=[N+](CCCCS(=O)(=O)[O-])c2ccc3ccccc3c21` [ICG, indocyanine green], the Blood half-life in series [1] was 2.5 to 3 min.
Turning to “(DOTA)Lys(PEG40 kDa)-Cys(IR-783) [PN(783)11.7, PEG-like Nanoprobe: 40 kDa PEG, IR-783 fluorochrome, DOTA peptide]”, the “Cell NSB: percent of HT-29 cells above the cutoff for unstained cells” value with HT-29 cells turned out to be 17±1%. In addition, the “Volume FPLC, globular protein equivalent molecular volume” value in series [2] (FPLC, Superdex 200 10/300GL, 0.05 M sodium phosphate, 0.1 M NaCl (0.1% Tween, pH 7.2), 0.8 ml/min, calibrated with globular protein standards) came to 690 kDa. In addition, the “Volume FPLC Dia. (diameter)” value in series [2] (globular protein equivalent volume from FPLC converted to spherical diameter by formula (ref 15)) was 11.7 nm. In addition, the “Size by dynamic light scattering” value in series [3] is 11.7 nm. The “Quant. Yield” value in series [4] was 0.16±0.02.
